Reference: patent US20260242478A1 (published 2026)

B1: Phage-2153 (peptide)
peptide: EHKWCIPDWMCMVA
notes: Clonal phage of the Peptide-180 library, tested as crude supernatant; not shown: fused to the pIII filament of the bacteriophage
B2: Phage-2151 (peptide)
peptide: YEIRCIPPWMCAFD
notes: as for B1
B3: Phage-2150 (peptide)
peptide: VHIWCIPQWMCMDR
notes: as for B1
B4: Phage-2157 (peptide)
peptide: DVIRCTPDWMCTGF
notes: as for B1
B5: Phage-2152 (peptide)
peptide: IEKWCTPAWMCYGI
notes: as for B1
B6: Phage-2158 (peptide)
peptide: FERWCIPAWMCQSD
notes: as for B1
B7: Phage-2155 (peptide)
peptide: EGRWCIPSWMCVGV
notes: as for B1
B8: Phage-2160 (peptide)
peptide: AMHWCIPKWMCETS
notes: as for B1
B9: Phage-2156 (peptide)
peptide: VSKWCTPEWMCTGF
notes: as for B1
B10: Phage-2147 (peptide)
peptide: VEKWCIPQWMCVSQ
notes: as for B1
B11: Phage-2149 (peptide)
peptide: ITNWCKPAWMCEVS
notes: as for B1
B12: Phage-2148 (peptide)
peptide: IMKLCMPPWMCAAM
notes: as for B1
B13: Phage-2159 (peptide)
peptide: ETKWCFPPWMCAGS
notes: as for B1
B14: Phage-2154 (peptide)
peptide: LDKWCTPEWMCWGI
notes: as for B1

How the values were obtained:
[1] = biological target: T1, Anti-PSMA Fab (SEQ ID NOs: 19, 20); assay: phage ELISA; biotinylated PSMA Fab on neutravidin plate pre-incubated with PSMA antigen as competitor, anti-M13-HRP detection
T1 construct: also called 006 PSMA Fab
Method: (§1) Clonal phage were harvested as crude supernatants and screened via standard ELISAs. […] Prior to the addition of clonal phage. wells were incubated with blocking buffer and PSMA antigen or blocking buffer alone. Without washing or aspirating, clonal phage supernatants were then added to the wells and incubated for a short time. Wells were then washed followed by detection of bound phage using a horse radish conjugated anti-M13 antibody.

[2] = biological target: T1, Anti-PSMA Fab (SEQ ID NOs: 19, 20); assay: phage ELISA; biotinylated PSMA Fab on neutravidin plate, clonal phage supernatant, anti-M13-HRP detection;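 note: wells were preincubated with blocking buffer containing PSMA antigen or with blocking buffer only, then phage supernatant was added without washing for a brief incubation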
Method: as §1

[3] = biological target: T2, Anti-PSMA Fab (SEQ ID NOs: 19, 20); assay: phage ELISA; biotinylated PSMA Fab on neutravidin plate, clonal phage supernatant, anti-M13 HRP detection;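 note: wells preincubated with PSMA antigen in blocking buffer or with blocking buffer only before clonal phage were added for a short incubation, then bound phage detected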
T2 construct: Biotinylated PSMA Fab captured on neutravidin coated plates in the phage ELISA; also called 006 PSMA Fab
Method: as §1

[4] = biological target: T2, Anti-PSMA Fab (SEQ ID NOs: 19, 20); assay: phage ELISA; PSMA Fab on plate pre-incubated with PSMA antigen as competitor, anti-M13 HRP detection;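 note: crude clonal phage supernatants added to Fab-coated wells still holding PSMA antigen in blocking buffer, with bound phage as read-out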
Method: as §1

Binder	Phage binding ELISA, Anti-PSMA Fab signal in the presence of PSMA [1]	Phage binding ELISA, Anti-PSMA Fab (SEQ ID NOs: 19, 20) signal [2]	Phage binding ELISA, Anti-PSMA Fab (SEQ ID NOs: 19, 20) signal [3]	Phage binding ELISA, Anti-PSMA Fab signal in the presence of PSMA [4]
SAPWCIPEWMCFSL [Phage-2146]	0.101	1.69		
MVNWCTPPWMCWGF [Phage-2145]	0.194	1.69		
B1			1.67	0.0728
B2			1.68	0.117
B3			1.68	0.202
B4			1.66	0.064
B5			1.68	0.077
B6			1.66	0.066
B7			1.67	0.0956
B8			1.66	0.141
B9			1.67	0.0826
IPKWCTPVWMCEGM [Phage-2142]	0.0647	1.69		
AEKWCIPNWMCEAG [Phage-2144]	0.0588	1.69		
B10			1.69	0.0673
VWHWCTPPWMCNAE [Phage-2143]	0.141	1.69		
B11			1.68	0.114
B12			1.68	0.0907
B13			1.66	0.337
B14			1.67	0.0536
